Measurements: patent US7105647

Tests used:
[1] = target: AH receptor nuclear translocator (ARNT), full length (human) (UniProt P27540); assay: yeast two-hybrid, lacZ reporter (FIG. 3)
[2] = target: AH receptor nuclear translocator (ARNT), full length (human) (UniProt P27540); assay: yeast two-hybrid, Galacto-Light lacZ assay, with vs without 1 µM βNF
[3] = target: AH receptor nuclear translocator (ARNT), full length (human) (UniProt P27540); assay: yeast two-hybrid, Galacto-Light lacZ assay, 1 µM βNF
MOP4 (human) = MOP4 (human) (UniProt Q99743); assay: cell-based or functional assay
MOP2 (human) = MOP2 (human) (UniProt Q99814); assay: cell-based or functional assay
[4] = target: Human CLOCK, full length (human) (UniProt O15516); assay: cell-based or functional assay
MOP1/HIF1α (human) = MOP1/HIF1α (human) (UniProt Q16665); assay: cell-based or functional assay
Chain of MOP1/HIF1α (human) (Q16665 whole entry): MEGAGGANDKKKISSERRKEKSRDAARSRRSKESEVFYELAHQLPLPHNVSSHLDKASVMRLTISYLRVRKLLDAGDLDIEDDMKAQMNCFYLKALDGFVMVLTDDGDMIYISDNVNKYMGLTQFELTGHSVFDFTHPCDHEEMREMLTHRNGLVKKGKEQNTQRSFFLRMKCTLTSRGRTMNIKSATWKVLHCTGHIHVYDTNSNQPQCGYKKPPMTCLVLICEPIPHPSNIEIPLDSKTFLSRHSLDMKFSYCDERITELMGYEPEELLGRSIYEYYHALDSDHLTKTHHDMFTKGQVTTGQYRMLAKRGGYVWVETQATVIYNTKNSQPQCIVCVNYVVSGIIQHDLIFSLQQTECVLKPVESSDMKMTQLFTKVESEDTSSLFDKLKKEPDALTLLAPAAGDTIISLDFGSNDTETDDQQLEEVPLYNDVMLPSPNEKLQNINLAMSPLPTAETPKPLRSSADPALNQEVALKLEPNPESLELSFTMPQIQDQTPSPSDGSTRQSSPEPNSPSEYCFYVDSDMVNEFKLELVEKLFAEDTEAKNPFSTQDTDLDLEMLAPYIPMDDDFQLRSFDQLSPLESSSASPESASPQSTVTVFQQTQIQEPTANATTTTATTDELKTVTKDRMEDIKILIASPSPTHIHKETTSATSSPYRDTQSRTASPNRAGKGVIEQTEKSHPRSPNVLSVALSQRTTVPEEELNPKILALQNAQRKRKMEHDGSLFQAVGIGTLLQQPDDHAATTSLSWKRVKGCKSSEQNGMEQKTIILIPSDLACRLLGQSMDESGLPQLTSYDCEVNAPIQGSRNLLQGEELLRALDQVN

Chain of AH receptor nuclear translocator (ARNT), full length (human) (P27540 whole entry): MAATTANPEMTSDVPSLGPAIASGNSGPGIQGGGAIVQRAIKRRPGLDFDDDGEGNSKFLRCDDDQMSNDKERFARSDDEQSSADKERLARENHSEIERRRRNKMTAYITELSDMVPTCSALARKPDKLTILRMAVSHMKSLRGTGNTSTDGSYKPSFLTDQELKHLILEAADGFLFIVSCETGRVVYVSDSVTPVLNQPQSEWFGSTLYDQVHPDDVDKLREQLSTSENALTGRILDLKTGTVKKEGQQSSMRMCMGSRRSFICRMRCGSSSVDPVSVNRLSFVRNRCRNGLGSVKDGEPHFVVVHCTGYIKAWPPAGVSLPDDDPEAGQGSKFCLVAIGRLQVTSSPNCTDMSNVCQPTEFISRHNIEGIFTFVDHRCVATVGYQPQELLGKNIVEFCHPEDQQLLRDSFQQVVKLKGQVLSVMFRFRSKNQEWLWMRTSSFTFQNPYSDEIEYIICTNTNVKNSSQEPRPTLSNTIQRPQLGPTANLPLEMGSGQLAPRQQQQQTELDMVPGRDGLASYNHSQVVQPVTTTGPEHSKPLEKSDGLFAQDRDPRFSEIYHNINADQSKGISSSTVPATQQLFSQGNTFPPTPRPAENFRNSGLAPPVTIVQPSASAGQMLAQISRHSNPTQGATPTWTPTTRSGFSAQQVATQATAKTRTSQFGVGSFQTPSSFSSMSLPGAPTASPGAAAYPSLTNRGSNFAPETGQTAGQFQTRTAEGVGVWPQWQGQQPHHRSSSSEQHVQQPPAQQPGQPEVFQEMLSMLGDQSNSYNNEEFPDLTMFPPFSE
Chain of Human CLOCK, full length (human) (O15516 whole entry): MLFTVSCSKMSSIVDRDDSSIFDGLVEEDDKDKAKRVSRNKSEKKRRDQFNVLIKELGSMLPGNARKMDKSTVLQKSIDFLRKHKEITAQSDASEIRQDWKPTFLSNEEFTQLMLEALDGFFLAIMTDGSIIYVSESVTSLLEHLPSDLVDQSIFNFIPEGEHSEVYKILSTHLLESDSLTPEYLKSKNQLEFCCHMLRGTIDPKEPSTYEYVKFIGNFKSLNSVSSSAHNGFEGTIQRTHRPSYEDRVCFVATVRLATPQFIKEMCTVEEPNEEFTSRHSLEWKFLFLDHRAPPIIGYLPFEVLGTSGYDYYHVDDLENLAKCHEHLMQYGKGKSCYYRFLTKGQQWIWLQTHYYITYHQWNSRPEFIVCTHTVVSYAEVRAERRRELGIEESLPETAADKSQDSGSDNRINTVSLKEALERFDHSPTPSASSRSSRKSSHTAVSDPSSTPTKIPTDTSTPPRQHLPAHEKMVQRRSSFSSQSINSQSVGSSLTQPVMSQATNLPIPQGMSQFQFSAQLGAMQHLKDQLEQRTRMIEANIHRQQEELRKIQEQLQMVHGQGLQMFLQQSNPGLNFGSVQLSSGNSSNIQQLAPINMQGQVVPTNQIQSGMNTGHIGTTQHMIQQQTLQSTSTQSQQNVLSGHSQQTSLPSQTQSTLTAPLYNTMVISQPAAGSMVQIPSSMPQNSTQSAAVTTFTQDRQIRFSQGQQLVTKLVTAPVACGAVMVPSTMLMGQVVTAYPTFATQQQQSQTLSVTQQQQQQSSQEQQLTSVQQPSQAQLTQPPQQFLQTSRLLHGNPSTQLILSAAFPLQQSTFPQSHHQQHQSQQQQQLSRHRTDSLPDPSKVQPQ
Chain of MOP4 (human) (Q99743 other isoform, or with tags, fused parts or gaps limits assumed): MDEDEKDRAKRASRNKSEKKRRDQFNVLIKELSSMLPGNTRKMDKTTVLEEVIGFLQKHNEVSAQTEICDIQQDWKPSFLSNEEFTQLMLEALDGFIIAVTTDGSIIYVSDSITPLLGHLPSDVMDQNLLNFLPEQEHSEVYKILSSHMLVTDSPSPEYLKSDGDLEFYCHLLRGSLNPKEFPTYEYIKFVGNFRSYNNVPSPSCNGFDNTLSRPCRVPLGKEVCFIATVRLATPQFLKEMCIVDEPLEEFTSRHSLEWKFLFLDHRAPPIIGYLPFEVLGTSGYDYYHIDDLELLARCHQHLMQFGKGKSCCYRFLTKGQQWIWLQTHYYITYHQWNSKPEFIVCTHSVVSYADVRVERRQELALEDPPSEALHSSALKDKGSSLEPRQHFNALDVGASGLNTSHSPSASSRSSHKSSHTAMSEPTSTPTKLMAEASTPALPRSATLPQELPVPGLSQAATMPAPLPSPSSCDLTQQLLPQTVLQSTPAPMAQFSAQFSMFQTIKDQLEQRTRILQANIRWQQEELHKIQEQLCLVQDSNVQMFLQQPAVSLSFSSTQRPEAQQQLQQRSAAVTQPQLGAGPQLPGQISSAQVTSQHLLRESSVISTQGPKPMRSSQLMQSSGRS
Chain of MOP2 (human) (Q99814 other isoform, or with tags, fused parts or gaps limits assumed): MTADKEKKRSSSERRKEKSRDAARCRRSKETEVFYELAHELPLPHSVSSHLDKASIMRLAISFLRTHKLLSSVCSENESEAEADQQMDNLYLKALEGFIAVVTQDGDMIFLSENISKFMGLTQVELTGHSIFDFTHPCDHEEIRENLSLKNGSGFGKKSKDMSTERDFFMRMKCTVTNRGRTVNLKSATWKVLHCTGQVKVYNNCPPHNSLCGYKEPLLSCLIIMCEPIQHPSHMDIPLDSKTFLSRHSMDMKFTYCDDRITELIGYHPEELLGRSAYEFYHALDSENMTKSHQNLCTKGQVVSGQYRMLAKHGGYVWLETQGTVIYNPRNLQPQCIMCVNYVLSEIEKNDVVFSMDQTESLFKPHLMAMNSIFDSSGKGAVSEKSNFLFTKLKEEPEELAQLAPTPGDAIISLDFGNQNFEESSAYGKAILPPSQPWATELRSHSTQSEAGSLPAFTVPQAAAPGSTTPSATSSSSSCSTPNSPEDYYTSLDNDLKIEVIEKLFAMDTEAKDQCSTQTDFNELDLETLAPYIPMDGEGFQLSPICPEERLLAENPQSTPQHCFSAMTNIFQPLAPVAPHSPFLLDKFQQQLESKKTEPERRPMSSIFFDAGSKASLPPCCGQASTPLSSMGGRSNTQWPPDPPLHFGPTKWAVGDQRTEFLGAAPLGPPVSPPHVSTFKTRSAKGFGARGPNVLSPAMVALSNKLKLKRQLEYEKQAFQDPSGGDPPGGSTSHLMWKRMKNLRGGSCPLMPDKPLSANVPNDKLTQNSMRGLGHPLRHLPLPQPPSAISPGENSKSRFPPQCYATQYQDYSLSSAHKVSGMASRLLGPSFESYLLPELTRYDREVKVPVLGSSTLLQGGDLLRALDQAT

fold relative to the LexAARNT-AHR interaction [1] [times] | fold over the same pair in the absence of ligand [2] [fold] | fold above background (lacZ reporter activity) [3] [fold] | luciferase reporter with three copies of the M34 element, COS-1 cells (MOP4 (human)) [fold] | luciferase reporter with six copies of the M13 element, COS-1 cells (MOP2 (human)) [fold] | luciferase reporter with three copies of the M34 element, COS-1 cells [4] [fold] | luciferase reporter with six copies of the M13 element, COS-1 cells (MOP1/HIF1α (human)) [fold] | Substance
14.7 | 6.4 | 913 |  |  |  |  | LexAAHR (from UniProt P0A7C2 1-202; P30561 1-805)
 |  |  | 3.3 | 3.6 | 5.6 | 3.3 | full-length MOP3 (cDNA form identified by the yeast interaction trap)
